Source: the supplement of paper PMC7877785
± gives the uncertainty stated by the source.

Experiment: self-splicing fitness, log relative to wild type (ln ratio); higher = more splicing; Tetrahymena group I intron in knt gene, E. coli kanamycin selection, DiMSum; sequences stand for … in CUCUCU…GGAGGGAAAAGUUAUCAGGCAUGCACCUGGUAGCUAGUCUUUAAACCAAUAGAUUGCAUCGGUUUAAAAGGCAAGACCGUCAAAUUGCGGGAAAGGGGUCAACAGCCGUUCAGUACCAAGUCUCAGGGGAAACUUUGAGAUGGCCUUGCAAAGGGUAUGGUAAUAAGCUGACGGACAUGGUCCUAACCACGCAGCCAAGUCCUAAGUCAACAGAUCUUCUGUUGAUAUGGAUGCAGUUCACAGACUAAAUGUCGGUCGGGGAAGAUGUAUUCUUCUCAUAAGAUAUAGUCGGACCUCUCCUUAAUGGGAGCUAGCGGAUGAAGUGAUGCAACACUGGAGCCGCUGGGAACUAAUUUGUAUGCGAAAGUAUAUUGAUUAGUUUUGGAGUACUCGUGGUCG
Procedure, shortened: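 A randomised library covering all eight P1ex-region intron nucleotides was built with the intron in the knt kanamycin-resistance gene on pET-22b(+) and held in E. coli BL21(DE3). Cells were grown overnight at 37°C or 30°C on LB agar, with or without 25 μg/mL kanamycin, plus 100 μg/mL carbenicillin, 50 μM IPTG and 0.2% rhamnose, and pooled colonies were amplicon-sequenced on an Illumina HiSeq 2500. DiMSum fitness is the error-weighted combination of wild-type-normalised replicate fold changes, kanamycin versus none.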

Sequence | self-splicing fitness (ln) (30 °C) | self-splicing fitness (ln) (37 °C)
UGGUAGCAAUAUUACGAGCG | -0.4 ± 0.053 | -0.521 ± 0.081
UGGUAGCAAUAUUACGAUGU | -3.19 ± 0.19 | -2.12 ± 0.26
UGGUAGCAAUAUUACGAUUC | -2.63 ± 0.24 | -2.05 ± 0.26
UGGUAGCAAUAUUACGCACG | -0.419 ± 0.17 | –
UGGUAGCAAUAUUACGCCUG | 0.0915 ± 0.14 | 0.675 ± 0.2
UGGUAGCAAUAUUACGCGAG | -1.29 ± 0.17 | -2.17 ± 0.24
UGGUAGCAAUAUUACGCGCA | -0.453 ± 0.1 | 0.351 ± 0.11
UGGUAGCAAUAUUACGCGUG | -0.581 ± 0.087 | 0.251 ± 0.1
UGGUAGCAAUAUUACGGACA | -0.879 ± 0.12 | 0.135 ± 0.16
UGGUAGCAAUAUUACGGAGA | – | -1.24 ± 0.2
UGGUAGCAAUAUUACGGAUG | -1.34 ± 0.15 | 0.065 ± 0.13
UGGUAGCAAUAUUACGGCAA | -1.14 ± 0.086 | 0.277 ± 0.1
UGGUAGCAAUAUUACGGCGA | -0.171 ± 0.19 | 0.49 ± 0.15
UGGUAGCAAUAUUACGGGAG | -3.82 ± 0.43 | -1.6 ± 0.13
UGGUAGCAAUAUUACGGGCG | 0.0756 ± 0.11 | 0.475 ± 0.12
UGGUAGCAAUAUUACGGUGG | -3.53 ± 0.2 | -1.94 ± 0.14
UGGUAGCAAUAUUACGUAAA | -1.01 ± 0.099 | -0.497 ± 0.11
UGGUAGCAAUAUUACGUACC | -2.93 ± 0.42 | -2.31 ± 0.49
UGGUAGCAAUAUUACGUACU | 0.209 ± 0.34 | –
UGUAAGCAAUAUUACGAAAG | -3.6 ± 0.25 | -2.75 ± 0.34
UGUAAGCAAUAUUACGAACC | -0.477 ± 0.22 | 0.667 ± 0.32
UGUAAGCAAUAUUACGAACG | 0.23 ± 0.13 | 0.542 ± 0.13
UGUAAGCAAUAUUACGCAGA | -3.67 ± 0.42 | -1.72 ± 0.34
UGUAAGCAAUAUUACGCGGG | -4.06 ± 0.29 | -0.563 ± 0.15
UGUAAGCAAUAUUACGCUAA | -2.73 ± 0.21 | -0.75 ± 0.15

Sequence | self-splicing fitness (ln) (30 °C) | self-splicing fitness (ln) (37 °C)
UGUAAGCAAUAUUACGCUAG | -1.82 ± 0.1 | -0.0644 ± 0.099
UGUAAGCAAUAUUACGGCCC | -2.98 ± 0.38 | –
UGUAAGCAAUAUUACGGCGG | -0.367 ± 0.098 | -0.217 ± 0.12
UGUAAGCAAUAUUACGGGGU | -3.75 ± 0.31 | -2.24 ± 0.28
UGUAAGCAAUAUUACGGUCA | -0.349 ± 0.08 | 0.113 ± 0.12
UGUAAGCAAUAUUACGGUUG | -1.14 ± 0.096 | -0.58 ± 0.1
UGUAAGCAAUAUUACGUAUA | -1.21 ± 0.097 | -0.761 ± 0.12
UGUAAGCAAUAUUACGUCAG | -1.14 ± 0.093 | -0.0311 ± 0.11
UGUAAGCAAUAUUACGUGAU | -3.5 ± 0.18 | -2.05 ± 0.17
UGUAAGCAAUAUUACGUGGA | -2.52 ± 0.25 | -1.78 ± 0.22
UGUAAGCAAUAUUACGUGUA | -1.52 ± 0.077 | -0.97 ± 0.093
UGUAAGCAAUAUUACGUUCC | -4.53 ± 0.33 | -0.21 ± 0.19
UGUCAGCAAUAUUACGAAGC | -3.79 ± 0.18 | -0.785 ± 0.17
UGUCAGCAAUAUUACGAAGU | -4.02 ± 0.46 | -1.93 ± 0.24
UGUCAGCAAUAUUACGAAUA | -0.932 ± 0.14 | -1.03 ± 0.11
UGUCAGCAAUAUUACGACGU | -1.31 ± 0.098 | -0.968 ± 0.14
UGUCAGCAAUAUUACGAGUA | -1.31 ± 0.066 | -0.775 ± 0.073
UGUCAGCAAUAUUACGAUUG | -0.341 ± 0.076 | 0.249 ± 0.12
UGUCAGCAAUAUUACGCACC | -1.28 ± 0.18 | -0.269 ± 0.21
UGUCAGCAAUAUUACGCAUA | -0.485 ± 0.06 | 0.0762 ± 0.068
UGUCAGCAAUAUUACGCGAA | -0.455 ± 0.069 | 0.0551 ± 0.085
UGUCAGCAAUAUUACGCUCU | -0.884 ± 0.15 | -0.226 ± 0.13
UGUCAGCAAUAUUACGCUGA | -0.7 ± 0.23 | -0.59 ± 0.27
UGUCAGCAAUAUUACGCUUG | -1.09 ± 0.066 | -0.432 ± 0.089
UGUCAGCAAUAUUACGCUUU | -1.13 ± 0.091 | 0.276 ± 0.09

Sequence | self-splicing fitness (ln) (30 °C) | self-splicing fitness (ln) (37 °C)
UGUCAGCAAUAUUACGGACC | -0.173 ± 0.15 | -2.33 ± 0.17
UGUCAGCAAUAUUACGGCGU | -1.95 ± 0.15 | -0.728 ± 0.13
UGUCAGCAAUAUUACGGCUC | -2.5 ± 0.15 | -0.587 ± 0.16
UGUCAGCAAUAUUACGGGAU | -3.26 ± 0.15 | -3.32 ± 0.19
UGUCAGCAAUAUUACGGGGC | -2.84 ± 0.16 | -3.02 ± 0.26
UGUCAGCAAUAUUACGGUGU | -2.06 ± 0.084 | -1.13 ± 0.1
UGUCAGCAAUAUUACGGUUC | -3.07 ± 0.2 | -1.63 ± 0.24
UGUCAGCAAUAUUACGUAGG | -0.865 ± 0.079 | -0.275 ± 0.1
UGUCAGCAAUAUUACGUAGU | -2.85 ± 0.15 | -0.865 ± 0.11
UGUCAGCAAUAUUACGUCUG | -0.693 ± 0.1 | -0.104 ± 0.11
UGUCAGCAAUAUUACGUGCG | -0.00445 ± 0.076 | 0.159 ± 0.092
UGUCAGCAAUAUUACGUUGA | -3.77 ± 0.23 | -2.47 ± 0.19
UGUCAGCAAUAUUACGUUGG | -4.09 ± 0.3 | -2.22 ± 0.25
UGUGAGCAAUAUUACGAGCU | -2.7 ± 0.26 | -2.14 ± 0.41
UGUGAGCAAUAUUACGCACG | -1.47 ± 0.21 | -1.8 ± 0.21
UGUGAGCAAUAUUACGCAUG | -1.91 ± 0.15 | -1.96 ± 0.22
UGUGAGCAAUAUUACGCCAG | -2.23 ± 0.32 | -2.01 ± 0.34
UGUGAGCAAUAUUACGCCUC | -1.83 ± 0.41 | –
UGUGAGCAAUAUUACGCUAA | -2.39 ± 0.17 | -2.04 ± 0.23
UGUGAGCAAUAUUACGGAAU | -3.76 ± 0.32 | -2.04 ± 0.23
UGUGAGCAAUAUUACGUGAA | – | -1.69 ± 0.23
UGUGAGCAAUAUUACGUGCC | -2.51 ± 0.3 | –
UGUGAGCAAUAUUACGUGCU | -3.34 ± 0.29 | -3.41 ± 0.33
UGUGAGCAAUAUUACGUGUA | -1.49 ± 0.29 | -1.46 ± 0.28
UGUGAGCAAUAUUACGUUAA | -2.97 ± 0.31 | -2.44 ± 0.37

Sequence | self-splicing fitness (ln) (30 °C) | self-splicing fitness (ln) (37 °C)
UGUGAGCAAUAUUACGUUGC | – | -1.57 ± 0.37
UGUUAGCAAUAUUACGAACA | -1.08 ± 0.2 | -1.15 ± 0.32
UGUUAGCAAUAUUACGAAGU | -3.08 ± 0.13 | -2.76 ± 0.19
UGUUAGCAAUAUUACGAAUC | -2.97 ± 0.48 | –
UGUUAGCAAUAUUACGACCU | -0.58 ± 0.16 | 0.317 ± 0.2
UGUUAGCAAUAUUACGAGGA | – | -1.92 ± 0.21
UGUUAGCAAUAUUACGAGUA | -1.32 ± 0.13 | -0.347 ± 0.13
UGUUAGCAAUAUUACGAUAA | -0.767 ± 0.17 | -0.345 ± 0.16
UGUUAGCAAUAUUACGAUCU | -0.736 ± 0.088 | -0.148 ± 0.12
UGUUAGCAAUAUUACGCCGA | -1.18 ± 0.17 | -1.21 ± 0.15
UGUUAGCAAUAUUACGCUCG | -0.015 ± 0.18 | -0.0235 ± 0.21
UGUUAGCAAUAUUACGGAUC | -2.29 ± 0.35 | -1.81 ± 0.27
UGUUAGCAAUAUUACGGCGU | -0.742 ± 0.1 | -0.892 ± 0.14
UGUUAGCAAUAUUACGGUCG | -0.217 ± 0.15 | 0.99 ± 0.18
UGUUAGCAAUAUUACGGUUC | -1.02 ± 0.24 | -1.25 ± 0.48
UGUUAGCAAUAUUACGUACA | -0.999 ± 0.11 | 0.16 ± 0.13
UGUUAGCAAUAUUACGUAGA | -2.29 ± 0.12 | -0.809 ± 0.14
UGUUAGCAAUAUUACGUAGU | -3.48 ± 0.33 | -2.22 ± 0.27
UGUUAGCAAUAUUACGUCAU | -2.42 ± 0.3 | -1.35 ± 0.24
UGUUAGCAAUAUUACGUUAU | -2.78 ± 0.16 | -2.67 ± 0.19
UGUUAGCAAUAUUACGUUCU | -1.29 ± 0.14 | -0.157 ± 0.16
UUAAAGCAAUAUUACGAAAA | -0.945 ± 0.057 | -0.761 ± 0.08
UUAAAGCAAUAUUACGAACA | -0.0579 ± 0.13 | 0.708 ± 0.18
